The nature of this series: protein stability index of a GFP-peptide fusion (GPS, HEK-293T) (PSI 1-6); higher = more stable.
[1] abbreviates: treatment: DMSO, c terminus: a fixed tail appended.
Setting [2] is: treatment: MLN4924 1 uM, 8 h, c terminus: a fixed tail appended.

± gives the standard deviation.
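Also: 24-mer peptide tiles fused after GFP, lentivirally expressed, FACS-sorted into six equal bins by GFP/DsRed ratio, decoded by Illumina sequencing, PSI is the read-weighted mean bin number.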

For the sequence FSSLNHIVEKRVLAHLAPLFDNPK [INTS3], the protein stability index turned out to be 2.27 ± 0.18 under setting [1] and 2.4 ± 0.44 under setting [2]. For FTLNFFRSGIQFGSWGSFQLPGLL [CLCN6], in that order: 2.93 ± 0.36 and 3.02 ± 0.97.

With FVEDSFDPNINPTIGASFMTKTVQ [RAB22A], the protein stability index is, setting by setting: under setting [1], 2.97 ± 0.27; under setting [2], 3.34 ± 0.46. The corresponding values for FVKALDDLHKMNHVTPPNVSLGAT [JUNB] are 2.43 ± 0.34 and 2.94 ± 0.49. For FVWYTPPTFMIAVFLPIVVLIFKS [STEAP1], in that order: 3.33 ± 1.6 and 2.81 ± 1.2. For FWLQNSSPSSDRVSAIIWEGNECK [PHTF1], in that order: 2.41 ± 0.32 and 3.07 ± 0.4. Take FYGLLFTSENLKLVHIVCHKKTTH [DFFB]: the protein stability index under setting [1] was 2.73 ± 0.56 and the protein stability index under setting [2] came to 2.58 ± 0.31. For FYHYFEDKENIYILLEYCSRRSMA [PLK2], in that order: 2.34 ± 0.53 and 2.21 ± 0.27. For GADNIDVSHPIIYRGAVYADNMEF [FEM1B], in that order: 3.11 ± 0.17 and 3.21 ± 0.48.

For GAGFGGGLGAGFGGGFAGGDGLLV [KRT16], the protein stability index under setting [1] amounted to 2.58 ± 0.82 and the protein stability index under setting [2] was 2.46 ± 0.92. For GAMLGQTTSEEAVGGATPDQTTSE [HDAC6], in that order: 4.91 ± 0.58 and 5.59 ± 0.073. Under setting [2], GAQPCLLLPIVPLSWLVWLLLLLL [ADAMTS4] showed a protein stability index of 2.67 ± 1.3.

As for GCALTTFSVLEGEKNNHRAKDLRA [SOAT1], the protein stability index came out at 3.49 ± 0.52 under setting [1] and 3.83 ± 0.63 under setting [2].

GCLKMNPDDRLTCSQLLESSYFDS [CDKL4]: the protein stability index runs as follows: under setting [1], 3.4 ± 0.45; under setting [2], 3.54 ± 0.21. Regarding GDKYEHHSYMGMRGFCAFLGSWLV [POMT2], the protein stability index runs as follows: under setting [1], 2.23 ± 0.57; under setting [2], 1.73 ± 0.29. For GDSFSHSSNRIRHLRTHTGERPYK [ZNF263], in that order: 4.28 ± 0.14 and 4.62 ± 0.16. Regarding GDSGERSEGEAMEICSEPVAASPA [ZNF511], the protein stability index turned out to be 5.47 ± 0.24 under setting [1] and 5.52 ± 0.26 under setting [2]. The corresponding values for GEIETIARFGSGPCKTRDDEPVCG [APMAP] are 4.66 ± 0.47 and 5.13 ± 0.27.

Take GGADIIVIKYNVNDKFSFHEVKDN [RHOBTB3]: the protein stability index reads like this: under setting [1], 2.72 ± 0.42; under setting [2], 2.09 ± 0.55.

Take GGAGREDPGLWSRLCRLAGASSPA [ZSWIM9]: the protein stability index came out at 3.12 ± 0.17 under setting [1] and 2.92 ± 0.36 under setting [2]. The corresponding values for GGARSLWRGNGINVLKIAPESAIK [SLC25A25] are 3.29 ± 0.45 and 3.19 ± 0.47. For GGDYGLVTAGCGFGKDFRKGLLKK [PPTC7], in that order: 3.22 ± 0.36 and 3.6 ± 0.48. With GGGISCVLQDGCVFEKAGVSISVV [CPOX], the protein stability index reads like this: under setting [1], 2.23 ± 0.63; under setting [2], 2.41 ± 0.48. The corresponding values for GGLLTGNEKITMQNLNDRLASYLE [KRT13] are 3.19 ± 0.15 and 3.24 ± 0.13. The corresponding values for GGLQHRVTAKTAPDVLRTKPAFIG [PTPRD] are 3.44 ± 0.5 and 3.07 ± 0.34. In the case of GGQRSTPLIIAARNGHAKVVRLLL [FEM1B], the protein stability index came out at 2.16 ± 0.2 under setting [1] and 2.23 ± 0.44 under setting [2].

Regarding GGTGSGDGNKIFLCHCGKAFSHKS [ZBTB22], the protein stability index by setting is: under setting [1], 2.27 ± 0.38; under setting [2], 2.58 ± 0.41.

Turning to GHEKTAKSKTRSLLKRMESLKLKS [DLC1], the protein stability index was 3.62 ± 0.17 under setting [1] and 3.89 ± 0.5 under setting [2]. For GHGSHSFIYYENMLLGVPRLRQLK [PKD2L1], in that order: 2.17 ± 0.12 and 2.27 ± 0.034. The corresponding values for GIEPLYIKAEPASPDSPKGSSETE [ESRRA] are 5.57 ± 0.21 and 5.36 ± 0.33.

Regarding GIIPYAGIDLAVYETLKNAWLQHY [SLC25A25], the protein stability index is, setting by setting: under setting [1], 2.6 ± 0.48; under setting [2], 2.65 ± 0.67. For GIRLPNGKLKCDICGIICIGPNVL [IKZF1], in that order: 2.61 ± 0.48 and 2.46 ± 1.

In the case of GKDAKTTNGHGGEAAEGKSLGSAL [TRIM29], the protein stability index came out at 5.36 ± 0.14 under setting [1] and 5.27 ± 0.19 under setting [2]. For GKTTIILRCLDRDEPSKPTLALEY [DYNC2LI1], in that order: 2.25 ± 0.37 and 2.05 ± 0.29. For GLDYLHSKCKIIHTDIKPENILMC [SRPK2], in that order: 2.06 ± 0.22 and 1.9 ± 0.35. As for GLFFPPQLNGTANDTAGPELPDPL [NFE2L1], the protein stability index is 4.29 ± 0.27 under setting [1] and 4.45 ± 0.23 under setting [2]. For GNQESKLIILASGGPQALVNIMRT [CTNNB1], in that order: 2.21 ± 0.57 and 2.26 ± 0.69. The corresponding values for GPIQLWQFLLELLSDKSCQSFISW [ETS2] are 2.62 ± 0.5 and 2.73 ± 0.6.

For GPLLDSLYWTKWYNNQSLGHGSHS [PKD2L1], the protein stability index by setting is: under setting [1], 2.51 ± 0.16; under setting [2], 2.47 ± 0.38.

Turning to GPSRSRHRRRSRERGPYRTRKHAH [CLK3], the protein stability index reads like this: under setting [1], 4.92 ± 0.24; under setting [2], 4.8 ± 0.38. For GQLRVFGAGLLSSISELKHALSGH [TPH1], in that order: 2.24 ± 0.27 and 2.13 ± 0.19.

Turning to GRFCGQQNPPVIKSSGRFLWIKFF [NETO1], the protein stability index runs as follows: under setting [1], 2.1 ± 0.84; under setting [2], 2.39 ± 1.1. On to GRLAMDEIFQKPFQTLMFLVRDWS [ATL3], for which the protein stability index by setting is: under setting [1], 2.25 ± 0.55; under setting [2], 2.09 ± 0.21. For GRSWPSAPDDSKAQAHRIHIDPEI [PDLIM4], in that order: 4.22 ± 0.33 and 4.31 ± 0.07. For GRTLIGFLRSIDQFANLVLHQTVE [LSM1], in that order: 3.37 ± 0.64 and 2.75 ± 0.5.

For the sequence GSEAAVIPLDLGCTQVTQDGDIPN [FAM189A2], the protein stability index turned out to be 5.05 ± 0.39 under setting [1] and 5.26 ± 0.5 under setting [2]. As for GSLGPVPVLRFDALWQVLARDCFA [TRIM14], the protein stability index by setting is: under setting [1], 2.42 ± 0.83; under setting [2], 2.89 ± 0.43.

For GSNRSGSDRRKEKDPKAGDSKSGG [DVL3], the protein stability index reads like this: under setting [1], 5.63 ± 0.21; under setting [2], 5.47 ± 0.23. GSSSSSSSSINSPDRASGPEGSLS [FAM104A]: the protein stability index by setting is: under setting [1], 5.5 ± 0.22; under setting [2], 5.45 ± 0.2. The corresponding values for GSYGVVFKCRNKTSGQVVAVKKFV [CDKL4] are 2.02 ± 0.48 and 2.16 ± 0.46.

GSYNGQIGWFPSNYVLEEVDEAAA [NCK2] gave a protein stability index under setting [1] of 4.65 ± 0.29 and a protein stability index under setting [2] of 4.66 ± 0.36. The corresponding values for GTDGYMPRELASMSLVLHGNNLLV [KLHDC10] are 2.72 ± 0.68 and 2.35 ± 0.56. The corresponding values for GTEQSRGLGHGSTSRGGPWVGTGL [CPOX] are 3.27 ± 0.84 and 3.6 ± 0.26.

Regarding GTLSMGVPQIFKYGETCFPKGRFE [ZNF24], the protein stability index by setting is: under setting [1], 2.83 ± 0.11; under setting [2], 2.56 ± 0.27. GVCYSESQSSASQPRLSYAEMAED [CLCN6]: the protein stability index worked out at 5.11 ± 0.23 under setting [1] and 5.28 ± 0.31 under setting [2]. Consider GVSEILLKTQMKMSLKCLAARAVR [FEM1B], for which the protein stability index was 2.65 ± 0.56 under setting [1] and 2.58 ± 0.26 under setting [2].

Consider GYDGLNILNSVEKYDPHTGHWTNV [KLHL12], for which the protein stability index came to 2.75 ± 0.42 under setting [1] and 3.05 ± 0.19 under setting [2]. The corresponding values for GYFFPTSARDCKFTGNFFYNYMMG [DHCR7] are 2.36 ± 0.38 and 2.36 ± 0.21. For HAPGVPKILVGNRLHLAFKRQVPR [RAB40A], in that order: 2.58 ± 0.28 and 2.88 ± 0.31. The corresponding values for HCIQQILEAVLHCHQMGVVHRDLK [CAMK2B] are 2.6 ± 0.7 and 2.95 ± 0.37.

Consider HDFLSDLFSDDYGGKNCKKPAEYG [CEBPB], for which the protein stability index came to 3.83 ± 0.16 under setting [1] and 3.8 ± 0.17 under setting [2].

As for HDGKPSEGSYRIHVLHHGTGKWYE [USP39], the protein stability index reads like this: under setting [1], 2.71 ± 0.2; under setting [2], 2.88 ± 0.16. For HDHLTLSVSRPEGRSWPSAPDDSK [PDLIM4], in that order: 5.15 ± 0.093 and 5.06 ± 0.072. As to HEVLLCSDLVKAYQRCVSAAHKG [CHCHD6], the protein stability index (treatment: DMSO, c terminus: native) came to 2.56 ± 0.75 and the protein stability index (treatment: MLN4924 1 uM, 8 h, c terminus: native) is 2.27 ± 0.45.

Take HFKKTKKMGGKDFSFRYQQELEEE [ATL3]: the protein stability index is, setting by setting: under setting [1], 2.59 ± 0.56; under setting [2], 3.54 ± 0.81.

Take HFQPNSPASDLEAALEAAGEGLNV [NANOGP8]: the protein stability index runs as follows: under setting [1], 5.05 ± 0.26; under setting [2], 5.24 ± 0.28. For HFRPRFHPLPTVIIVNLLWFIHLV [TMEM192], in that order: 2.63 ± 0.48 and 2.82 ± 0.79. The corresponding values for HGQLDDLIFIFYKNGLPSPERSYV [PPEF2] are 2.88 ± 0.41 and 2.35 ± 0.44. For HGRARIARLMLESEYRSDIINAKS [ASB7], in that order: 3.05 ± 0.3 and 3.18 ± 0.23. In turn, HGRGTEVLLEEPLPLETARESPSF [ZNF263] displayed a protein stability index under setting [1] of 4.69 ± 0.28 and a protein stability index under setting [2] of 4.81 ± 0.25.

As for HKKTTHKLNCDPSRIYKPQTRLKR [DFFB], the protein stability index was found to be 4.07 ± 0.28 under setting [1] and 4.22 ± 0.25 under setting [2]. HKRAIMPYGVYKKQQKDPSEEAAV [ATE1]: the protein stability index was determined as 4.3 ± 0.32 under setting [1] and 4.44 ± 0.11 under setting [2].

The values are drawn from the supplement of paper PMC10567573.
